# Patent US20100129869
# Legend:
# Assay in all cases: cell_activity
# [1] = test system: ZFN 9075 (engineered); conditions: pair with ZFN 9372
# [2] = test system: ZFN 9372 (engineered); conditions: pair with ZFN 9075
# [3] = test system: ZFN 8365 (engineered); conditions: pair with ZFN 8361; CHO cells, Surveyor
# [4] = test system: ZFN 8361 (engineered); conditions: pair with ZFN 8365; CHO cells, Surveyor
# [5] = test system: ZFN 12172 (engineered); conditions: pair with ZFN 12176; CHO clone 1F1.6, Surveyor
# [6] = test system: ZFN 9477 (engineered); conditions: pair with ZFN 9476; CHO-S GS-/- B3, Surveyor
# [7] = test system: ZFN 7844 (engineered); conditions: pair with ZFN 9461; CHO-S GS-/- B3, Surveyor
# [8] = test system: ZFN 9461 (engineered); conditions: pair with ZFN 7844; CHO-S GS-/- B3, Surveyor
# [9] = test system: ZFN 9476 (engineered); conditions: pair with ZFN 9477; CHO-S GS-/- B3, Surveyor
# [10] = test system: ZFN 12176 (engineered); conditions: pair with ZFN 12172; CHO clone 1F1.6, Surveyor
# [11] = HEK293, CEL-I, also active in K562
# [12] = wt FokI, CHO-K1, Surveyor, 24% with obligate heterodimer FokI, 25% in CHO-S
substance,measurement,setting,value
human GS exon 6 target,activity,[1]; [11],21 % NHEJ
same,activity,[2]; [11],21 % NHEJ
TATACATGGCTTGGACTTTCTCACCCTG (double strand) [CHO GS exon 2 ZFN 8365 half-site],activity (% modified chromosomes),[3],7
CTGGGTTGATGGTACTGGAGAAGGACTG (double strand) [CHO GS exon 2 ZFN 8361 half-site],activity (% modified chromosomes),[4],7
AAGGAGGCAAAGACAAAG (double strand) [CHO FUT8 exon 10 ZFN 12172 half-site],activity (% modified alleles),[5],7.5
AGTCCGGGGGGTGGTG (double strand) [CHO DHFR intron 1 ZFN 9477 half-site],activity (% modified alleles),[6],18
GTTCCCAGGAATGGGCTTGGGG (double strand) [CHO GS exon 6 ZFN 9372 half-site],activity (% modified chromosomes),[2]; [12],26
CCAATGCTCAGGTACT (double strand) [CHO DHFR exon 1 ZFN 7844 half-site],activity (% modified alleles),[7],15
AGGGAAGGTCTCCGTT (double strand) [CHO DHFR exon 1 ZFN 9461 half-site],activity (% modified alleles),[8],15
CATGGGTAGCCGCTGA (double strand) [CHO DHFR intron 1 ZFN 9476 half-site],activity (% modified alleles),[9],18
GAATGGTGCAGGCTGC (double strand) [CHO GS exon 6 ZFN 9075 half-site],activity (% modified chromosomes),[1]; [12],26
AAGAAGGGTCATCAG (double strand) [CHO FUT8 exon 10 ZFN 12176 half-site],activity (% modified alleles),[10],7.5
